Test results published in PMC8854993, “Acetylation at Lysine 86 of Escherichia coli HUβ Modulates the DNA-Binding Capability of the Protein” (Frontiers in Microbiology, 2021).

Key:
[1] = biological target: HUβ(K86ac) K86ac (Escherichia coli BL21(DE3)) (UniProt P0ACF4); assay: EMSA; conditions: 4 µM HU dimer, 1 µM DNA; versus HUβ2; p < 0.05; 2-nt gap in bottom strand; 30 mM Tris pH 7.5, 100 mM NaCl, 0.02% Tween20, 0.5 mg/ml BSA; 30-bp DNA 1 µM, 18°C 10 min, 10% PAGE in TBE; long DNA 250 ng in 15 µL, 37°C 1 h, 0.5% agarose in …
HUα;HUβ = HUα;HUβ (Escherichia coli BL21(DE3);Escherichia …, UniProt P0ACF0;P0ACF4 1-90;1-90, |); assay: EMSA; heterodimer; higher affinity than homodimer; 30 mM Tris pH 7.5, 100 mM NaCl, 0.02% Tween20, 0.5 mg/ml BSA; 30-bp DNA 1 µM, 18°C 10 min, 10% PAGE in TBE; long DNA 250 ng in 15 µL, 37°C 1 h, 0.5% agarose in; conditions: protein: recombinant;recombinant; tags: C-terminal 6xHis;C-terminal 6xHis; copies: 1;1; three strands; 2-nt gap in bottom strand between S16 and S17; blunt outer ends
Chain of HUα;HUβ (P0ACF0 whole entry, chain 1 of 2): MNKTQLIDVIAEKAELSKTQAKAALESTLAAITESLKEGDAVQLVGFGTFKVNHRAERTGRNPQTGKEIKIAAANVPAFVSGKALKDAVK
Chain of HUα;HUβ (P0ACF4 whole entry, chain 2 of 2): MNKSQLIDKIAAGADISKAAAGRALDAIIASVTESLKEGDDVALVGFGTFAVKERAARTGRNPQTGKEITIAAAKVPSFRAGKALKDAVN

Chain of HUβ(K86ac) K86ac (Escherichia coli BL21(DE3)) (P0ACF4 whole entry): as the sequence (P0ACF4 whole entry, chain 2 of 2) above

With “CCAACTTCCCTAACCCAGCTGCGATCCGTA / TACGGATCGCAGC / GGTTAGGGAAGTTGG [30-bp duplex with 2-nt gap]” the binding signal (fold free DNA) [1] was over 4.

B1: 30-bp duplex with 2-nt gap (dsDNA)
DNA 1: CCAACTTCCCTAACCCAGCTGCGATCCGTA
DNA 2: TACGGATCGCAGC
DNA 3: GGTTAGGGAAGTTGG
modifications: 2-nt gap in bottom strand
B1: binds (HUα;HUβ).
